Our source for the melting temperature (Tm) of temperature-induced Gn/Gc dissociation values is US20210000940A1.

Like-named read-outs stand apart in the source and are kept apart here.

Assay [1] concerns the target Andes virus glycoprotein Gc, wild type (Andes orthohantavirus CHI-7913) (UniProt Q9E006).
For assay [2] the target is unchanged. The source holds these as a separate data set.

In the case of “Andes virus glycoprotein Gn, wild type (from UniProt Q9E006 19-651)”, the melting temperature (Tm) of temperature-induced Gn/Gc dissociation in assay [1] worked out at 37.7 °C; in assay [2] it was 36.3 °C.
